The results in this text go back to patent US20190015515A1.

Assay [1] addresses glucose transporter 4 (GLUT4) on mouse red blood cells (mRBCs) or mRBC membranes (mouse) (UniProt P14142). The assay can be described thus: ELISA of insulin bound to mRBCs. In general terms: In an ELISA, binding on a coated surface is turned into a signal by an enzyme label.
For assay [2] the target is unchanged. The assay can be described thus: ELISA of insulin released from Glu-Insulin loaded mRBCs at 37 C.
Assay [3] has as its target glucose transporter 1 (GLUT1) on human red blood cells (hRBCs) (human) (UniProt P11166). Kind of assay: loading of 1x10^8 RBCs with 0.5 mg/mL Glu-Insulin overnight, ELISA.
Sequence of UniProt P11166 (P11166 whole entry): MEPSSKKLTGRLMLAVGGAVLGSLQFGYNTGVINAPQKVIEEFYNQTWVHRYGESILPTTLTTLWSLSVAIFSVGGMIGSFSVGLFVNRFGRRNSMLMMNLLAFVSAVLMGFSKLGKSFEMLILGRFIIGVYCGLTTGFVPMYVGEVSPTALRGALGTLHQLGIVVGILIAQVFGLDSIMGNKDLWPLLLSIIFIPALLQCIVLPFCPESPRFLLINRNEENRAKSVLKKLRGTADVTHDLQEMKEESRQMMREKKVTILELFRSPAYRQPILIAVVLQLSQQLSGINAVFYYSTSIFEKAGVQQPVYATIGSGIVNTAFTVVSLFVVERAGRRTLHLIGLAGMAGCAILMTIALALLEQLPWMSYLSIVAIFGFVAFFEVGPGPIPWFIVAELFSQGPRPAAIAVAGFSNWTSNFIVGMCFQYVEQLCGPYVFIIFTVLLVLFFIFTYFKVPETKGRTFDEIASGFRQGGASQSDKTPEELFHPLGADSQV
The target of assay [4] is glucose transporter 4 (GLUT4) on mouse red blood cells (mRBCs) or mRBC membranes (mouse) (UniProt P14142). Described as above.
The target is the same in assay [5]. The assay can be described thus: flow cytometry (MFI) of Glu-FITC-insulin attached mRBCs treated with free glucose.

Sequence of UniProt P14142 (P14142 whole entry): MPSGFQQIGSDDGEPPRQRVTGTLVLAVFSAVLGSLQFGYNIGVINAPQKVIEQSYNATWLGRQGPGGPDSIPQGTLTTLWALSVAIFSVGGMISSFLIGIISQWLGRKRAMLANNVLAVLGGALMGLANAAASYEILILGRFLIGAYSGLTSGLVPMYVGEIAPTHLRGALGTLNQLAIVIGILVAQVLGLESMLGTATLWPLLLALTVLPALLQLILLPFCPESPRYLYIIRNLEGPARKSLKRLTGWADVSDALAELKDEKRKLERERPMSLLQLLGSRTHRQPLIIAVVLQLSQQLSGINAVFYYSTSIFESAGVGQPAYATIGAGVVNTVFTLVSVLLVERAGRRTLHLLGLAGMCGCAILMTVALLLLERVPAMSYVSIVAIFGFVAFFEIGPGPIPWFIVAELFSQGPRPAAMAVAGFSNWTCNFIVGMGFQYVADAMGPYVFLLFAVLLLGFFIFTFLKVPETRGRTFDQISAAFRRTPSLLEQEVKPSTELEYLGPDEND

“glucose-modified insulin (Glu-Insulin) (from UniProt P01308 90-110; P01308 25-54) (ligand)” came in with a loaded insulin per cell in assay [1] of less than 5e-13 g per cell. Also, the percent released from mRBCs at 400 mg/dL glucose within 2 h in assay [2] turned out to be 50%. Moreover, the figures for the percent of Glu-Insulin bound in assay [3] and in assay [4] were 60% and 20%, respectively. The decrease of insulin signal on mRBCs at 400 mg/dL glucose in assay [5] is 50%.
